Experimental data published in patent US20120065365A1, “Stable Radiopharmaceutical Compositions and Methods for Their Preparation” (BRACCO IMAGING S.P.A., priority 2003, published 2012).
Read-outs that look alike come from different tables or passages of the source.

Key:
[1] = format: physicochemical; conditions: 55 mCi/2 ml, 1 mL radiolysis protecting solution (L-cysteine) added after complex formation, room temperature
[2] = format: physicochemical; conditions: Radiolysis Protecting Solution containing L-selenomethionine, room temperature
Method: ^177Lu-A and ^177Lu-B were prepared at a 50 mCi level as described in EXAMPLE 4. Immediately after cooling the reaction mixtures to room temperature, 1 mL of a Radiolysis Protecting solution was added, containing 10 mg/mL gentisic acid; 50 mg/mL ascorbic acid sodium salt; 2 mg/mL HSA; 3.92 mg/mL L-selenomethionine, 0.9% (v:v) benzyl alcohol and 1 mg/mL of Na2EDTA.2H2O in 0.05 M, pH 5.3 citrate buffer. The reaction vials were stored in the autosampler chamber and the stability was analysed by RP-HPLC over time using HPLC Methods 3 [^177Lu-A] or 4 [^177Lu-B].

[3] = Stability in Radiolysis Protecting Solution containing methionine (FIG. 4 and similar study); format: physicochemical; conditions: methionine in the radiolysis protecting solution increased to 3 mg/mL
Method: Formulations stabilized by such cocktails maintained excellent radiochemical purity (RCP) values (>95% RCP) for as long as 5 days at room temperature. This stabilizing cocktail is added immediately after formation of the radioactive complex, so would be the second vial of a two-vial kit.

[4] = format: physicochemical; conditions: 50 mCi/2 mL in Radiolysis Protecting Solution containing L-methionine, room temperature
Method: The injection volume was 20 μL.
A Radiolysis Protecting Solution was prepared to contain 10 mg/mL gentisic acid; 50 mg/mL ascorbic acid sodium salt; 2 mg/mL HSA; 2.98 mg/mL L-methionine, 0.9% (v:v) benzyl alcohol and 1 mg/mL of Na2EDTA.2H2O in 0.05 M, pH 5.3 citrate buffer. […] The mixture was incubated at 100° C. for 5 min, and then cooled to room temperature with a water bath. A 1-mL aliquot of the Radiolysis Protecting Solution was immediately added. The reaction vial was stored in an autosampler chamber and the stability was analyzed by Reversed Phase HPLC over time, using HPLC Methods 3 and 4. The results obtained for ^177Lu-B are shown in the chromatograms in FIG. 9.

[5] = format: physicochemical; conditions: 50 mCi/2 mL, Radiolysis Protecting Solution with 0 mg/mL L-cysteine, room temperature
Method: ^177Lu-A was prepared at a 50 mCi level as described in EXAMPLE 4. Immediately after cooling the reaction mixture to room temperature, 1 mL of a Radiolysis Protecting Solution was added, that contained 10 mg/mL gentisic acid; 50 mg/mL ascorbic acid sodium salt; 2 mg/mL HSA; 0.9% (v:v) benzyl alcohol and 1 mg/mL of Na2EDTA.2H2O in 0.05 M, pH 3.3 citrate buffer. The reaction vial was stored in an autosampler chamber and the stability was analysed by RP-HPLC over time.

[6] = format: physicochemical; conditions: 50 mCi/2 mL, Radiolysis Protecting Solution, room temperature
Method: ^177Lu-A and ^177Lu-B were prepared at a 50 mCi level as described in EXAMPLE 4. Immediately after cooling the reaction mixtures to room temperature, 1 mL of a Radiolysis Protecting Solution was added, containing 10 mg/mL gentisic Acid; 50 mg/mL ascorbic acid sodium salt, 2 mg/mL HSA, (2 mg/mL or 3.52 mg/mL) L-cysteine, 0.9% (v/v) benzyl alcohol and 1 mg/mL of Na2EDTA.2H2O in 0.05 M, pH 5.3 citrate buffer. The reaction vials were stored in the autosampler chamber and the stability was analysed by RP-HPLC over time using HPLC Methods 3 [^177Lu-A] or 4 [^177Lu-B]. Similar results were obtained for ^177Lu-B.

Substance: ^177Lu-A: the ^177Lu complex of DOTA-Gly-ACA-Gln-Trp-Ala-Val-Gly-His-Leu-Met-NH2
- RCP for 5 days [1]: > 95%
- % RCP 0-d ([2]; 50 mCi level, 0 d): 97.6%
- % RCP 1-d ([2]; 1 d): 98.2%
- % RCP 2-d ([2]; 2 d): 97.5%
- % RCP 3-d ([2]; 3 d): 97.8%
- % RCP 5-d ([2]; 5 d): 99.4%
- RCP (effective radiostabilization) [3]: > 95%
- % RCP 0-d ([4]; 0 d): 100%
- % RCP 1-d ([4]; 1 d): 100%
- % RCP 2-d ([4]; 2 d): 100%
- % RCP 5-d ([4]; 5 d): 100%
- % RCP 0-d (first value of cell) ([5]; 0 d): 100/100%
- % RCP 0-d (second value of cell) ([5]; 0 d): 100/100%
- % RCP 1-d (first value of cell) ([5]; 1 d): 94.9%
- % RCP 1-d (second value of cell) ([5]; 1 d): 99.2%
- % RCP 2-d (first value of cell) ([5]; 2 d): 93.6%
- % RCP 2-d (second value of cell) ([5]; 2 d): 97.3%
- % RCP 3-d (second value of cell) ([5]; 3 d): ND/95.1%
- % RCP 5-d (first value of cell) ([5]; 5 d): 90.4%
- % RCP 5-d (second value of cell) ([5]; 5 d): 92.9%
- % RCP 0-d ([6]; L-cysteine 1.0 mg/mL): 100%
- % RCP 1-d ([6]; L-cysteine 1.0 mg/mL): 99.9%
- % RCP 2-d ([6]; L-cysteine 1.0 mg/mL): 98.4%
- % RCP 3-d ([6]; L-cysteine 1.0 mg/mL): 97.5%
- % RCP 5-d ([6]; L-cysteine 1.0 mg/mL): 96.9%
- % RCP 0-d ([6]; L-cysteine 1.75 mg/mL): 100%
- % RCP 1-d ([6]; L-cysteine 1.75 mg/mL): 99.9%
- % RCP 2-d ([6]; L-cysteine 1.75 mg/mL): 98.9%
- % RCP 3-d ([6]; L-cysteine 1.75 mg/mL): 95.8%
- % RCP 5-d ([6]; L-cysteine 1.75 mg/mL): 93.3%
